Experiment [1] addresses T1, TMEW19 (spTMEFF2(230-320)G3S-H6) (human, UniProt Q9UIK5 230-320).
T1 construct: Residues 230-320 of human TMEFF2 with G3S and 6xHis tag, all in the entry; also called TMEFF2 membrane proximal region; MP
T1 sequence: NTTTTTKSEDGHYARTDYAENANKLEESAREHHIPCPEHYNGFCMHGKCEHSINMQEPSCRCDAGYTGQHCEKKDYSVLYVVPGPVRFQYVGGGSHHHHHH
As to the kind of experiment: ProteOn SPR, mAb captured on anti-human Fc, TMEFF2 as analyte. The protocol:
(§1) The binding of anti-TMEFF2 mAbs to the ECD and the membrane proximal region of human TMEFF2 was measured by ProteOn SPR (Bio-Rad). The purified mAbs (diluted to a final concentration of 1 μg/ml in PBST) were used as ligands in the assay and were immobilized through Fc capture to Goat Anti-Human (GAH) IgG Fc. For amine coupling of the GAH IgG Fc, a 1:1 mixture of EDC (40 mM) and NHS (10 mM) were mixed immediately prior to injection to activate the chip surface and injected in the vertical orientation. GAH-Fc (at 30 μg/ml) antibody in acetate buffer (pH 5.0) was then flowed over the surface for 300 seconds at 30 μl/min in the vertical orientation. Any remaining reactive carboxyl groups in the surface were subsequently deactivated by injecting 1M Ethanolamine (pH 8.5) in the same orientation. The antibodies were used at a concentration of 1 μg/ml for immobilization. The antibodies were flowed over the surface in the horizontal direction. Human TMEFF2 ECD or the membrane proximal region in 3-fold dilution series of 5 concentrations (highest concentration ranging from 100-600 nM) was flowed in as analyte in the vertical orientation to bind to the captured molecules. A buffer sample was also injected in the 6th channel in the vertical direction to monitor any drift in the baseline signal. The association and dissociation phases for all concentrations were monitored over 3 minutes and 30 (or 15) minutes respectively, at a flow rate of 100 μL/min. The binding surface was regenerated for the next interaction cycle using an 18 second pulse of 0.8% phosphoric acid to remove the bound antigen. The raw data were processed by subtracting two sets of reference data from the response data: 1) the inter-spot signals to correct for the non-specific interactions between the antigen and the empty chip surface; 2) the empty channel signals (where only PBST was flowed over the chip) to correct for non-specific baseline drift.

The target in experiment [2] is T2, TMEW1 (TMEFF2-FL-ECD-His-Avitag) (human, UniProt Q9UIK5 41-320).
T2 construct: Human TMEFF2 ECD with C-terminal G3S, 6xHis tag and Avi-tag, all in the entry; also called TMEFF2 ECD
T2 sequence: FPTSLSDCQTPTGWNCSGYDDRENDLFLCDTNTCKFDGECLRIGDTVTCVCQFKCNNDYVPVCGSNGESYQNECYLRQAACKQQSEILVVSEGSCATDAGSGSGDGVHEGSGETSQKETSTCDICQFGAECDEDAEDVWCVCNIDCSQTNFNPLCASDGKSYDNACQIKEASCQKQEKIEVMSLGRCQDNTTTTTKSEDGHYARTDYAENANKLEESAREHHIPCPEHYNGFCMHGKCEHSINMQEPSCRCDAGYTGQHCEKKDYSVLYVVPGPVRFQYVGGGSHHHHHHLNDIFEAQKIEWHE
The description is as above. As to the method: as §1

In experiment [3] the target is T3, chimpanzee PSMA, full length, on HEK293F cells (Pan troglodytes (chimpanzee)).
T3 construct: stably transfected HEK293F cells; also called chimp PSMA; chimp-PSMA HEK
T3 chain: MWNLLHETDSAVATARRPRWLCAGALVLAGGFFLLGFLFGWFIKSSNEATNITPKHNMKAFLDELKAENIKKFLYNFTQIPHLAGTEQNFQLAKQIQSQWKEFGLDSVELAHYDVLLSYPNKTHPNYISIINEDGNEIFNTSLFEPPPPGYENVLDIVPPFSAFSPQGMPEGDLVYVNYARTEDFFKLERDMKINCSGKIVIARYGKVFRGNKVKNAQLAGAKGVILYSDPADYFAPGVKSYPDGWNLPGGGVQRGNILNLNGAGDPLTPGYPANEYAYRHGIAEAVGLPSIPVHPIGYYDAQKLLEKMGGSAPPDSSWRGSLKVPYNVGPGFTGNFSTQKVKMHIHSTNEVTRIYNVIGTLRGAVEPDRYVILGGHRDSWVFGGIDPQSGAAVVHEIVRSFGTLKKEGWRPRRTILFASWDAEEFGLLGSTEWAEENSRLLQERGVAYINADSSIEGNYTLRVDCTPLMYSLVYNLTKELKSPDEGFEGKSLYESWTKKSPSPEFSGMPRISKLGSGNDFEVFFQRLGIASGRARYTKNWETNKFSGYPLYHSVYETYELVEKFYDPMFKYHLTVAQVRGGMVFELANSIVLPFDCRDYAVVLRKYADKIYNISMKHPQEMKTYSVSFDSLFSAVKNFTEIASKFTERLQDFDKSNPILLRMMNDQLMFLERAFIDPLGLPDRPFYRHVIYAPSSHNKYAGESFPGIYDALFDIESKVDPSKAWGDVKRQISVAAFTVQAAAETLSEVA
As to the kind of experiment: flow cytometry, Fab supernatant, chimp PSMA HEK cells. The protocol: (§2) Individual Fab clones were isolated from the round 3 output of all panning experiments following pIX excision. Fab clones were tested for binding to chimp and cyno PSMA expressing HEK cells, as well as to human PSMA on LNCaP cells. Briefly, PSMA expressing cells were aliquoted into a V-bottom plate (CoStar 3357) at a density of 200,000 per well and incubated with (100 μl) supernatants expressing Fab fragments for 1 hour on ice. Cells were washed twice with PBS containing 2% FBS, and stained with a mouse anti-human kappa-RPE antibody (Life Technologies cat #MH10514) for 1 hour on ice. Cells were washed twice with PBS containing 2% FBS and resuspended in […] of the same wash buffer. Plates were read on a BD FACS Array flow cytometer. FACS data was analyzed in FlowJo software by live gating the healthy population of cells using forward scatter and side scatter, and then analyzing the cells within this gate for PE staining. Mean fluorescence intensity (MFI) was calculated and exported into Microsoft Excel. […] Fabs were sequenced and moved forward for cloning into mammalian expression vector for rescreening. True positives were selected from the binding of mammalian cell expressed Fab supernatants to PSMA-expressing cell lines.
(§3) Confirmation of mammalian expressed Fab supernatants was performed using the whole cell binding assay described previously. Binding of Fabs to human PSMA (LNCaP), chimpanzee, and cynomolgous monkey cells was tested, as well as counter screening for no binding to the parental HEK cell line.

In experiment [4] the target is T4, Cynomolgous monkey PSMA, full length, on HEK293F cells (Macaca fascicularis (cynomolgus monkey)).
T4 construct: stably transfected HEK293F cells; also called cyno PSMA; Cyno-PSMA HEK
T4 chain: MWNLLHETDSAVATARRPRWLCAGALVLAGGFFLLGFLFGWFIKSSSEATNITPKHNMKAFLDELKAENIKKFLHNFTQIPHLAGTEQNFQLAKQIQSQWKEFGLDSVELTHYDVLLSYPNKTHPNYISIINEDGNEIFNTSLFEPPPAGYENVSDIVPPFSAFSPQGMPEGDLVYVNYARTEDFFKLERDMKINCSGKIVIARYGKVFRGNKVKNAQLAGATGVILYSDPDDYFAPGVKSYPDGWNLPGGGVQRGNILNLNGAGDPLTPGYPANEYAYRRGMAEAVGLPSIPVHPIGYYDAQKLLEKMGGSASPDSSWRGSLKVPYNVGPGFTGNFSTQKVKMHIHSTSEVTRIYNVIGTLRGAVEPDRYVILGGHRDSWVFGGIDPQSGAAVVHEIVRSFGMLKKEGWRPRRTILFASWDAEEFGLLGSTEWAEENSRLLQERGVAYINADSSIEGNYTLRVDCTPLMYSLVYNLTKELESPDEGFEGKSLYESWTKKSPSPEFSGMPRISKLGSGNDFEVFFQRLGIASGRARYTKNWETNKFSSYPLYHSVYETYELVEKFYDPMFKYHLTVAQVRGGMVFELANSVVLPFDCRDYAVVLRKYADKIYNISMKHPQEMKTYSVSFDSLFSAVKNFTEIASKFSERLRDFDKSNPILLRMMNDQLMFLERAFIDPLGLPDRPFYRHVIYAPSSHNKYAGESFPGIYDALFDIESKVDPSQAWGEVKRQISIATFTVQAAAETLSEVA
As to the kind of experiment: flow cytometry, Fab supernatant, cyno PSMA HEK cells. As to the method:
as §2, §3
Background: In flow cytometry, cells or beads pass a laser one at a time.

In experiment [5] the target is T5, human PSMA on LNCaP cells (human, UniProt Q04609 1-750).
T5 construct: PSMA of the LNCaP prostate cancer cell line itself
As to the kind of experiment: flow cytometry, Fab supernatant, LNCaP cells. The protocol:
as §2, with “A cell-based binding assay was designed to assess the binding capabilities of individual Fab-his fusions from E. coli supernatants to PSMA-expressing cells. Individual” for “Individual”
as §3

Consider 6 molecules from patent publication US20230322924A1 (Janssen / Centocor, published 2023).

B1: TMEB674 (antibody, human IgG4 S228P, kappa, F234A L235A, V domains shown)
VH: VQLLESGGGLVQPPGGSLRLSCAASGFTFSSYSMSWVRQAPGKGLEWVSVISGGGSFTSYADSVKGRFTISRDNSNNTLYLQMSSLRAEDTAFYYCARMPLNSPHDCWGQGTLVTVSS
VL: AIQMTQSPSSLSASVGDRVTITCRASQGIRNDLGWYQQKPGKAPKLLIYAASSLQSGVPSRFSGSGSGTDFTLTISSLQPEDFATYYCLQDYNYSLTFGGGTKVEIRR
notes: IgG4 PAA anti-TMEFF2; also called TMEH410/TMEL126
One may read the Kd as a measure of binding affinity in units of concentration. For orientation: koff means the rate constant with which the complex falls apart. Usually kon stands for a measure of how fast the partners come together. In experiment [1], B1 displayed a Kd of 0.2 nM, a koff of 0.000175 s⁻¹ and a kon of 837000 M⁻¹ s⁻¹. In experiment [2], this molecule yielded a Kd of 0.1 nM, a dissociation rate constant (koff) of 0.000162 s⁻¹ and a kon of 2.01e+06 M⁻¹ s⁻¹.

B2: TMEB675 (antibody, human IgG4 S228P, kappa, F234A L235A, V domains shown)
VH: EVQLLESGGGLVQRGGSLRPSCAASGFTFSSYSMSWVRQAPGKGLEWVSVISGSGGFTDYADSVKGRFTISRDNSKNTLYLHMNSLRAEDTAVYYCARMPLNSPHDYWGQGTLVTVSS
VL: AIQMTQSPSSLSASVGDRVTITCRASQGIRNDLGWYQQKPGKAPKLLIYAASSLQSGVPSRFSGSGSGTDFTLTISSLQPEDFATYYCLQDYNYALTFGGGTKVEIKR
notes: IgG4 PAA anti-TMEFF2; also called TMEH411/TMEL127
For B2, in experiment [1], the Kd is 0.2 nM, the koff stood at 0.000158 s⁻¹ and the kon was 972000 M⁻¹ s⁻¹. In experiment [2], the affinity, expressed as Kd, was 0.1 nM; the off-rate (koff) was 0.000153 s⁻¹; the kon came to 2.65e+06 M⁻¹ s⁻¹.

B3: TMEB565 (antibody, human IgG4 S228P, kappa, F234A L235A, V domains shown)
VH: QVQLVQSGAEVKKPGSSVKVSCKASGGTFSSYYISWVRQAPGQGLEWMGGIIPISGRANYAQKFQGRVTITADESTSTAYMELSSLRSEDTAVYYCARDGYSSGRSTTYAFDYWGQGTLVTVSS
VL: EIVLTQSPGTLSLSPGERATLSCRASQSVATYYLAWYQQKPGQAPRLLIYGASSRATGIPDRFSGSGSGTDFTLTISRLEPEDFAVYYCQQYGYNPITFGQGTKVEIKR
notes: IgG4 PAA anti-TMEFF2; also called TMEH396/TMEL111
With B3, in experiment [1], the Kd is 0.01 nM, the koff came out at 6.39e-06 s⁻¹ and the kon was found to be 777000 M⁻¹ s⁻¹. In experiment [2], this molecule had a Kd of 0.02 nM, a koff of 9.13e-06 s⁻¹ and a kon of 384000 M⁻¹ s⁻¹.

B4: TMEB570 (antibody, human IgG4 S228P, kappa, F234A L235A, V domains shown)
VH: QVQLVQSGAEVKKPGSSVKVSCKASGGTFSSYYISWVRQAPGQGLEWMGGIIPISGRANYAQKFQGRVTITADESTSTAYMELSSLRSEDTAVYYCARDGYSSGRSTTYAFDYWGQGTLVTVSS
VL: EIVLTQSPGTLSLSPGERATLSCRASQSVSTYYLAWYQQKPGQAPRLLIYGASYRATGIPDRFSGSGSGTDFTLTISRLEPEDFAVYYCQQYGHSPITFGQGTKVEIKR
notes: IgG4 PAA anti-TMEFF2; also called TMEH396/TMEL112
As to B4, in experiment [1], the equilibrium dissociation constant (Kd) is 0.06 nM, the dissociation rate constant (koff) stood at 4.67e-05 s⁻¹ and the kon was determined as 762000 M⁻¹ s⁻¹. Besides, in experiment [2], the Kd is 0.11 nM, the koff turned out to be 5.13e-05 s⁻¹ and the kon amounted to 464000 M⁻¹ s⁻¹.

B5: PSMB18 (Fab, V domains shown)
VH: EVQLVQSGAEVKKPGESLKISCKGSGYSFTSYWIGWVRQMPGKGLEWMGIIYPGDSDTRYSPSFQGQVTISADKSISTAYLQWSSLKASDTAMYYCARAYHYSKGLDYWGQGTLVTVSS
VL: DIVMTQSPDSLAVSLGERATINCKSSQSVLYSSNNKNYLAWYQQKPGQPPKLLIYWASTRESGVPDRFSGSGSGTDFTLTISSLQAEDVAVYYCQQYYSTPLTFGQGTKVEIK
notes: mammalian-expressed Fab supernatant (huG1 Fab and human kappa vectors); also called PSMM18
With B5, the results for the Geo-MFI in experiment [3] and in experiment [4] were 439 and 696, respectively.

B6: PSMB25 (Fab, V domains shown)
VH: EVQLVQSGAEVKKPGESLKISCKGSGYSFTSYWIGWVRQMPGKGLEWMGIIYPGDSDTRYSPSFQGQVTISADKSISTAYLQWSSLKASDTAMYYCARGWAYDRGLDYWGQGTLVTVSS
VL: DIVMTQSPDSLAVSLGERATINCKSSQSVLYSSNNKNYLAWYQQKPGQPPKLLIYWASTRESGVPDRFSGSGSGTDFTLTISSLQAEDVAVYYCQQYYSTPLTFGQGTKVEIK
notes: mammalian-expressed Fab supernatant (huG1 Fab and human kappa vectors); also called PSMM25
As for B6, the figures for the Geo-MFI in experiment [3], in experiment [4] and in experiment [5] were 11.3, 15.2 and 16.9, respectively.
